B1: optimized anti-E-selectin antibody 1282 (protein)
chain 1: EVQLVESGGGLVQPGGSLRLSCAASGYAIRSAYMHWVRQAPGKGLEWVARIDPANGNTIYVDSVEGRFTISADNAKNSAYLQMNSLRAEDTAVYYCAMDLYSTSEYWGQGTLVTVSSASTKGPSVFPLAPSSKSTSGGTAALGCLVKDYFPEPVTVSWNSGALTSGVHTFPAVLQSSGLYSLSSVVTVPSSSLGTQTYICNVNHKPSNTKVDKKVEPKSCDKTHTCPPCPAPEAAGAPSVFLFPPKPKDTLMISRTPEVTCVVVDVSHEDPEVKFNWYVDGVEVHNAKTKPREEQYNSTYRVVSVLTVLHQDWLNGKEYKCKVSNKALPAPIEKTISKAKGQPREPQVYTLPPSREEMTKNQVSLTCLVKGFYPSDIAVEWESNGQPENNYKTTPPVLDSDGSFFLYSKLTVDKSRWQQGNVFSCSVMHEALHNHYTQKSLSLSPG
chain 2: DIQMTQSPSSLSASVGDRVTITCKTSQNIERYLNWYQQKPGKAPKLLIYAASSLQSGVPSRFSGSGSGTDFTLTISSLQPEDFATYFCLQDNAWPLTFGQGTKVEIKRTVAAPSVFIFPPSDEQLKSGTASVVCLLNNFYPREAKVQWKVDNALQSGNSQESVTEQDSKDSTYSLSSTLTLSKADYEKHKVYACEVTHQGLSSPVTKSFNRGEC
B2: optimized anti-E-selectin antibody 1284 (protein)
chain 1: B1 chain 1 with D62E
chain 2: B1 chain 2
B3: optimized anti-E-selectin antibody 1448 (protein)
chain 1: B1 chain 1 with E65K, G66E
chain 2: B1 chain 2
B4: optimized anti-E-selectin antibody 1444 (protein)
chain 1: B1 chain 1 with E65T
chain 2: B1 chain 2

Residue numbers refer to the chain shown, from its start.

This data set in a line: AC-SINS self-interaction.
Turning to B1, the AC-SINS (wavelength of maximum absorbance relative to blank, nm) was 1 nm.

Protein B2 displayed an AC-SINS (wavelength of maximum absorbance relative to blank, nm) of 1 nm.

As for B3, the AC-SINS (wavelength of maximum absorbance relative to blank, nm) was 1 nm.

As to B4, the AC-SINS (wavelength of maximum absorbance relative to blank, nm) was found to be 1 nm.
